Target: T1, biotin-CaM and GST-AKAP79 (1–153) (Homo sapiens, UniProt P0DP23)
T1 construct: made in house; host or cells: E. coli BL21 (DE3)
Experiment: alphascreen disruption of biotin-CaM / GST-AKAP79 (1–153) interaction
Assay type: binding
Conditions: 20-mer scanning peptides at 100 nM; biotin-CaM 10 nM; 1 mM CaCl2, 20 mM HEPES pH 7.2; preincubation 1 h 22 °C; mean ± s.e.m., n = 5 (Fig. 2d)
Protocol: To examine whether this could correspond to the CaM-binding site in AKAP79, we used a complementary method - the amplified luminescent proximity homogenous assay (alpha)-screen technique-to scan the N-terminus of AKAP79 for sequences that could mediate interactions with CaM. […] We screened peptides derived from the N-terminus of AKAP79 for their ability to reduce alphascreen emission. […] The effect of each peptide at 100 nM concentration on CaM–AKAP79 (1–153) interaction is shown in Fig. 2d as log2 emission ratios (with/without peptide).
To determine whether these basic amino acids contribute to the interaction, we compared how effectively peptides of different lengths could disrupt CaM–AKAP79 interaction.
In general, assays were performed in 50 μL buffer consisting of 20 mM HEPES pH 7.2, 100 mM NaCl, 0.1% BSA, 1 mM EGTA, 5 mM MgCl2, 1 mM CaCl2. CaCl2 was excluded where appropriate.
To determine the K Ca for CaM binding to calcineurin and AKAP79, the CaCl2 concentration was varied to produce different free Ca^2+ concentrations on the basis of calculations using maxchelator[43]. After initial incubations, anti-GST acceptor beads (PerkinElmer) were added at 10 ng/μL. […] After 1 h further incubation with vigorous shaking in a thermomixer (1200 r.p.m.), light emission at 568 nm was measured following excitation with a 680 nm laser using a Mithras LB 940 (Berthold Technologies). […]

- alphascreen signal compared to untreated samples (emission ratio with/without peptide): did not
Substance: D: 20-mer peptide of the AKAP79 N-terminus walk, positions 36-55 (CFKRRKKAAKALKPKAGSEA; UniProt P24588 36-55, looked up, fragment)
